{"source": "paper PMC4504729", "about": "(Journal of Medicinal Chemistry, 2014)", "molecules": {"B1": {"name": "TrkAIg2-NMR (domain or fragment, human)", "chain": "MDDDDDVSFCASVQLHTAVEMHHWCIPFSVDGQPAPSLRWLFNGSVLNETSFIFTEFLEPAANETVRHGCLRLNQPTHVNNGNYTLLAANPCGQASASIMAAFMDNPF"}}, "key": {"[1]": {"biological_target": "mouse NGF (nerve growth factor, from mouse submaxillary salivary glands) (mouse) (UniProt P01139)", "sequence (P01139 122-241)": "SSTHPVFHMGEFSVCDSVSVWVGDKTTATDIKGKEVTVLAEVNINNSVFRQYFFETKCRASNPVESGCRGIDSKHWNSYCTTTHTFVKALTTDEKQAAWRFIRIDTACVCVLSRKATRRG"}, "125I-labeled NGF": {"biological_target": "125I-labeled NGF (UniProt P01139 122-241, 125I label)", "sequence (P01139 122-241)": "as above", "experiment": "radioligand binding; competition: 15N-labeled TrkAIg2-NMR at varied concentration sequesters 125I-labeled NGF from full-length human TrkA on HEK cells", "conditions": "both partners purified"}, "[2]": {"biological_target": "T1, mouse NGF (nerve growth factor, from mouse submaxillary salivary glands) (mouse, UniProt P01139 122-241)", "T1 sequence (P01139 122-241)": "as above", "experiment": "cell-based or functional assay"}, "[3]": {"biological_target": "T1, mouse NGF (nerve growth factor, from …)", "experiment": "SEC; Superdex 75 gel filtration; TrkAIg2-NMR and mouse NGF applied separately and as a 1:1 ratio complex (1 mg/mL of each); 50 mM phosphate buffer, 150 μM NaCl, pH 7.4; sizes from a calibration curve", "conditions": "both partners purified"}}, "note": "Values joined by “and” are separate entries in the source; they are usually repeats but may differ in a detail not shown here. Equal values may be shown once.", "data": [{"molecule": "\"wild-type\" TrkAIg2 (TrkAIg2-WT) (domain or fragment)", "values": [{"measurement": "NGF-dependent PC12 cell survival/proliferation (MTS assay, mouse NGF 5 ng/mL), serial dilutions of TrkAIg2-WT; EC50 of the reduction", "setting": "[1]", "result": 0.48, "unit": "µM"}]}, {"molecule": "B1", "values": [{"measurement": "IC50", "setting": "125I-labeled NGF", "result": "~5 µM and ~2 µM"}, {"measurement": "NGF-dependent PC12 cell survival/proliferation (MTS assay, mouse NGF 5 ng/mL), serial dilutions of TrkAIg2-NMR; EC50 of the reduction", "setting": "[2]", "result": 2.1, "unit": "µM"}, {"measurement": "stoichiometry N", "setting": "[3]", "result": "2 TrkAIg2-NMR monomers per NGF dimer"}]}]}
